Assay results reported in patent US20250186597A1, “TARGETED IMMUNE ACTIVATION WITH IL-18 IMMUNOCYTOKINES” (BRIGHT PEAK THERAPEUTICS AG, priority 2023, published 2025).

Legend:
[1] = target: T1, human Fc gamma receptors IIb (FcγRIIb/CD32b) (Homo sapiens, UniProt P31994); test: Human FcγR binding ELISA, FcγRIIb/CD32b (Example 8); conditions: ELISA binding affinity
T1 construct: purchased R&D systems AVI1875-050
T1 sequence (P31994 43-310): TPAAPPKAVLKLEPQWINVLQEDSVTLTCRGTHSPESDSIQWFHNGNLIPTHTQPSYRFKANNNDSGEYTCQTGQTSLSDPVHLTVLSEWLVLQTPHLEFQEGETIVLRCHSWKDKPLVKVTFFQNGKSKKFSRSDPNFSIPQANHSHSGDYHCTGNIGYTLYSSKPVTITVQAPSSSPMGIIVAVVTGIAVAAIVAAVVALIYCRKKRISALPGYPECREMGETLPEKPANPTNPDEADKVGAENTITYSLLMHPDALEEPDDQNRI
Method: (§1) The interaction of the unmodified and of conjugated antibodies with human Fc gamma receptors I (FcγRI/CD64), with human Fc gamma receptors IIa (FcγRIIa/CD32a), with inhibitory human Fc gamma receptors IIb (FcγRIIb/CD32b), and with human Fc gamma receptors III FcγRIIIa/CD16 were measured by ELISA.
(§2) Briefly, Corning high-binding half-area plates (Fisher Scientific, Reinach, Switzerland) were coated overnight at 4° C. with 25 μl of unmodified and of conjugated anti-PD1 antibodies at 2.5 μg/ml in PBS. […] Plates surfaces were blocked with 25 μl of PBS-0.02% Tween20-1% BSA at 37° C. during 1 h. […] Twenty-five microliters of a 1/500 HRP-anti-His antibody in PBS—0.02% Tween20—0.1% BSA (R&D systems, anti-HIS—HRP Ab, #MAB050H) were added to each well and plates were incubated at Room Temperature during 1 h. […] ELISA signal was then measured at 450 nm on an EnSpire plate reader from Perkin Elmer (Schwerzenbach, Switzerland).

human PD1 = target: T2, human PD1 (Homo sapiens, UniProt Q15116); test: Binding kinetics to PD-1 by Bio-Layer Interferometry (Example 6); conditions: BLI, His-tagged human PD1
T2 construct: purchased R&D #8986-PD
Description: Based on Bio-Layer Interferometry (BLI), Octet® BLI systems enable real-time, label-free analysis for the determination of kinetics and affinity of a ligands to its receptor. Here anti-human IgG FC Capture (AHC) sensors are loaded with the test items (ICs). Sensors are first dipped into a kinetic buffer for baseline measurement, then into an analyte solution, here human PD1, to allow association and again into a buffer solution where the analyte is allowed to come off the ligand (dissociation). Several concentrations of analyte are run in parallel and enable the calculation of affinity parameters: Ka, Kd, KD.
Typically, first, the sensors are regenerated by 3 cycles of dipping into 10 mM glycine solution at pH=2 for 20 seconds, followed by 20 second kinetics buffer and a final 60 seconds in kinetics buffer to establish the initial signal (baseline). Second, the loading column will contain the ligand, here the unmodified PD-1 antibodies and of IL-18 polypeptide conjugated PD-1 antibody, at a fixed concentration determined in the loading scout experiment (20 ug/mL). Then another wash/baseline step allows non immobilized proteins to be washed away. […] After acquisition, the data is analyzed with Data Analysis Studio software (Sartorius). […] Group fitting is then applied to the data series and kinetics parameters are calculated.

[2] = target: T3, human Fc gamma receptors IIa (FcγRIIa/CD32a) (Homo sapiens, UniProt P12318); test: Human FcγR binding ELISA, FcγRIIa/CD32a (Example 8); conditions: ELISA binding affinity
T3 construct: purchased R&D systems 9595-CD-050
T3 sequence (P12318 34-317): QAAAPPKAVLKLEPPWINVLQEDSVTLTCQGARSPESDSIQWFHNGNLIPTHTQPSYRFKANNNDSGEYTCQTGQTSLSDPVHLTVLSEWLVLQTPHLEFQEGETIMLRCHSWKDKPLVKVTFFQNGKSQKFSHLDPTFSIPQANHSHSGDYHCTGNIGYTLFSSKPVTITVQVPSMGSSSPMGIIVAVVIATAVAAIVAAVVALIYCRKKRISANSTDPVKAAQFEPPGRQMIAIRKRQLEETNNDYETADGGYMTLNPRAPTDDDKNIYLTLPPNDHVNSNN
Method: as §1, §2

[3] = target: T4, human Fc gamma receptors I (FcγRI/CD64) (Homo sapiens, UniProt P12314); test: Human FcγR binding ELISA, FcγRI/CD64 (Example 8); conditions: ELISA binding affinity
T4 construct: purchased R&D systems 1257-FC-050
Method: as §1, §2

[4] = target: T5, human neonatal Fc receptor (FcRn) (Homo sapiens, UniProt P55899); test: Human FcRn binding AlphaLISA at pH 6 (Example 9)
T5 construct: purchased Perkin Elmer AL3095C
Method: The interaction of the unmodified and of conjugated anti-PD1 antibodies with the human neonatal Fc receptor (FcRn) at pH 6 was measured using the AlphaLISA® Human FcRn Binding Kit (AL3095C) from Perkin Elmer (Schwerzenbach, Switzerland). […] When reference IgG binds to FcRn, donor and acceptor beads come into proximity enabling the transfer of singlet oxygen that trigger a cascade of energy transfer reactions in the acceptor beads, resulting in a sharp peak of light emission at 615 nm. Addition of a free IgG antibodies into the AlphaLISA® mixture creates a competition for the binding of FcRn to the reference antibody resulting in a loss of signal.
After 90 min at 23° C. in the dark, AlphaLISA® signal was measured on an EnSpire plate reader (Excitation at 680 nm, Emission at 615 nm) from Perkin Elmer (Schwerzenbach, Switzerland).

human PD-L1/B7-H1 = target: T6, human PD-L1/B7-H1 (Homo sapiens, UniProt Q9NZQ7); test: PD-L1 binding ELISA assay (Example 5); conditions: biotinylated human PD-L1
T6 construct: purchased ACROBiosystems PD1-H82E5-25UG
Method: The interaction of the unmodified antibodies and corresponding IL-18 immunocytokines with relevant immune cell associated antigen are measured by ELISA assay. For these studies, Corning high-binding half-area plates (Fisher Scientific, Reinach, Switzerland) are coated overnight at 4° C. with 25 μl of unmodified antibodies corresponding IL-18 immunocytokines at […] in PBS. […] Plate surfaces are blocked with 25 μl of PBS-0.02% Tween20-1% BSA at 37° C. during 1 h. […] ELISA signal is then measured at 450 nm on an ENSPIRE® plate reader from Perkin Elmer (Schwerzenbach, Switzerland).

[5] = target: T7, human Fc gamma receptors III FcγRIIIa/CD16 (Homo sapiens, UniProt P08637); test: Human FcγR binding ELISA, FcγRIIIa/CD16 (Example 8); conditions: ELISA binding affinity
T7 construct: purchased R&D systems 4325-FC-050
Method: as §1, §2

T2 sequence (Q15116 25-288): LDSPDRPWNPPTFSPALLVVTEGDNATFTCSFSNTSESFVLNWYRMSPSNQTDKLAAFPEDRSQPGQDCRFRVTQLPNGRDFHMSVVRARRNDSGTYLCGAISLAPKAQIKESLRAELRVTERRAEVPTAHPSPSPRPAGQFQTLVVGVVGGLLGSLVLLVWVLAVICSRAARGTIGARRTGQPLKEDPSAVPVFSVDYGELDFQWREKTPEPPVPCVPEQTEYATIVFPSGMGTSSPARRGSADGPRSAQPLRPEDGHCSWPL
T7 sequence (P08637 17-254): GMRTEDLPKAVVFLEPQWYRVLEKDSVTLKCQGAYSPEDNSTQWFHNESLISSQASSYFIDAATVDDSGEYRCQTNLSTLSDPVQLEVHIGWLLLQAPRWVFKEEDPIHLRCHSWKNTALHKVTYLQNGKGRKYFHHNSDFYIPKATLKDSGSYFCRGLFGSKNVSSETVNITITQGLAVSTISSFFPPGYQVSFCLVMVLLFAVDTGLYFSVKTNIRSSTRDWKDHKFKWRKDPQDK
T4 sequence (P12314 16-374): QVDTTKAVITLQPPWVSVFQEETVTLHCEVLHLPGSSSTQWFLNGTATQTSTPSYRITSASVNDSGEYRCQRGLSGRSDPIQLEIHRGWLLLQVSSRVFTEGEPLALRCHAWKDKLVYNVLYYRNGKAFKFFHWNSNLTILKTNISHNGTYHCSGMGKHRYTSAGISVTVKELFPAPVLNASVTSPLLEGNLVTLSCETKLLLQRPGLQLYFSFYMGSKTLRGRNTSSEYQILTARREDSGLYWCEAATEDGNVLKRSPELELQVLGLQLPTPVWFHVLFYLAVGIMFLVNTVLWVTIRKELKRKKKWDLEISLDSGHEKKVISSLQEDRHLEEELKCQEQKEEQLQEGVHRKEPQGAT
T6 sequence (Q9NZQ7 19-290): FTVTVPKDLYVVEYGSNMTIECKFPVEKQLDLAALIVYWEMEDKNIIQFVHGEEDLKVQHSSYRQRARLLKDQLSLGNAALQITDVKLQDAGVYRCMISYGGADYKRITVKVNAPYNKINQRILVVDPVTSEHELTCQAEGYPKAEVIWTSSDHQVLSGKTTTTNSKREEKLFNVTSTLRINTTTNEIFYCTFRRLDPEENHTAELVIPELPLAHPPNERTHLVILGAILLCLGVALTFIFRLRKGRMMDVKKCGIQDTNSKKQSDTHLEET

- Kd [1]: 2630 nM
- ka (human PD1): 342000 M⁻¹ s⁻¹
- kd (human PD1): 0.0077 s⁻¹
- Kd [2]: 1350 nM
- Kd [3]: 0.315 nM
- Kd [4]: 6 nM
- Kd (human PD-L1/B7-H1): > 100 nM
- Kd [5]: 1710 nM
Substance: LZM-009: anti-PD-1 antibody, VH SEQ ID NO: 376, VL SEQ ID NO: 377 [reference compound]
